T1: FcgRIIb (FcγRIIb) extracellular domain with C-terminal His tag (human, UniProt P31994 43-217)
T1 construct: extracellular domain; not shown: His tag attached to the C terminus
T1 sequence (looked up): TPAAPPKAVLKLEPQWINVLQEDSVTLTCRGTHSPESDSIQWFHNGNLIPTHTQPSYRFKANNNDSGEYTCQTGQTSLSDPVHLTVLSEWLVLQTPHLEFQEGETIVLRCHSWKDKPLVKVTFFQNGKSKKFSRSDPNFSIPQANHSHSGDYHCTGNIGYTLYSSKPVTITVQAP

T2: FcgRIIa H (FcγRIIa type H) extracellular domain with C-terminal His tag (human, UniProt P12318 34-217)
T2 construct: extracellular domain; also called FcγRIIa H; not shown: His tag attached to the C terminus
T2 sequence (looked up): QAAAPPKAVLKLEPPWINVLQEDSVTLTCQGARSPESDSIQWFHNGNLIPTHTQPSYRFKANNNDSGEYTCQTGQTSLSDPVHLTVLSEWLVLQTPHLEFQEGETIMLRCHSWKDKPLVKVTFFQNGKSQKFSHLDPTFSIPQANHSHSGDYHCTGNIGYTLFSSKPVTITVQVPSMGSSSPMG

T3: FcgRIIa R (FcγRIIa type R) extracellular domain with C-terminal His tag (human, UniProt P12318 34-217)
T3 construct: extracellular domain; also called FcγRIIa R; not shown: His tag attached to the C terminus
T3 sequence (looked up): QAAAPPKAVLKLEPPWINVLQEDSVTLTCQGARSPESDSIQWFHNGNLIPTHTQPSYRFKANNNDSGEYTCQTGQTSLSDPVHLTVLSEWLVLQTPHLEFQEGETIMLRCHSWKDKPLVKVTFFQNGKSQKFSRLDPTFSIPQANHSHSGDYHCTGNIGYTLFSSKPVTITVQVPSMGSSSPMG


How the values were obtained:
Experiment in all cases: SPR (Biacore); KD of H240-Kn061/H240-Hl071/L73-k0 divided by KD of the variant
[1] = target: T4, FcgRIIIa V (FcγRIIIa type V) extracellular domain with C-terminal His tag (human, UniProt P08637 17-208)
T4 construct: extracellular domain; also called FcγRIIIa V; not shown: His tag attached to the C terminus
T4 sequence (P08637 17-208 F176V limits assumed): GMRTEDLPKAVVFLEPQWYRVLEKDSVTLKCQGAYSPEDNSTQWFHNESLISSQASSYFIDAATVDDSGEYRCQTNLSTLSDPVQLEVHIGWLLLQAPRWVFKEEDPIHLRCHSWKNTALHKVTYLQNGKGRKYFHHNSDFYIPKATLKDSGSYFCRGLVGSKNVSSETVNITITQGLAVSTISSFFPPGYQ
Protocol: (§1) The antibodies were assessed for the binding to each FcgR. […] The resultant value was defined as relative KD, and used as an assessment indicator.
(§2) Analysis of interaction between objective antibody and the FcγR was carried out using Biacore T100 (GE Healthcare), Biacore T200, Biacore A100, and Biacore 4000. HBS-EP+ (GE Healthcare) was used as the running buffer, and the measurement temperature was set to 25° C. Chips produced by immobilizing the antigen peptide by the amine coupling method to a Series S sensor Chip CM5 (GE Healthcare), chips produced by allowing preliminarily biotinylated antigen peptides to interact with and immobilize onto a Series S Sensor Chip SA (certified) (GE Healthcare), chips produced by immobilizing Protein L (ACTIGEN, BioVision) to Series S Sencor Chip CM5 (GE Healthcare), or chips produced by immobilizing Protein A/G (Thermo Scientific) to Series S Sencor Chip CM5 (GE Healthcare) were used. Antibodies of interest were captured onto these chips, and allowed to interact to each FcγR diluted with running buffer.

[2] = target: T1, FcgRIIb (FcγRIIb) extracellular domain …
Protocol: as §1, §2

[3] = target: T2, FcgRIIa H (FcγRIIa type H) …
Protocol: as §1, §2

[4] = target: T3, FcgRIIa R (FcγRIIa type R) …
Protocol: as §1, §2

[5] = target: T5, FcgRIIIa F (FcγRIIIa type F) extracellular domain with C-terminal His tag (human, UniProt P08637 17-208)
T5 construct: extracellular domain; also called FcγRIIIa F; 3aF; not shown: His tag attached to the C terminus
T5 sequence (P08637 17-208): as the sequence (P08637 17-208 F176V limits assumed) above, with V160F counted along it
Protocol: as §1, §2

Binder | relative KD [1] [ratio] | relative KD [2] [ratio] | relative KD [3] [ratio] | relative KD [4] [ratio] | relative KD [5] [ratio]
H240-Kn061/H240-Hl071/L73-k0 variant with F241N in H240-Hl071 (antibody, human IgG1, kappa, anti-epiregulin heterodimerized IgG1; also called H240-Hl071 F241N) heavy 1: QDQLVQSGAEVKKPGASVKVSCKASGFNIKDTYIQWVRQAPGQGLEWMGRIDPLRKQTKYREKFEGRVTITADTSTNTAYMELSSLRSEDTAVYYCVRSGREFDYWGQGTLVTVSSASTKGPSVFPLAPSSKSTSGGTAALGCLVKDYFPEPVTVSWNSGALTSGVHTFPAVLQSSGLYSLSSVVTVPSSSLGTQTYICNVNHKPSNTKVDKKVEPKSCDKTHTCPPCPAPEYYWGPSVFLFPPKPKDTLMISRTPEVTCVVVDVSDEDPEVKFNWYVDGVEVHNAKTKPREEQYNATYRVVSVLTVLHQDWLNGKEYKCKVSNKALPAPIEKTISKAKGQPREPQVCTLPPSRDELTKNQVSLWCLVKGFYPSDIAVEWESNGQPENNYKTTPPVLDSDGSFFLYSKLTVDKSRWQQGNVFSCSVMHEALHNHYTQKSLSLSP heavy 2: QDQLVQSGAEVKKPGASVKVSCKASGFNIKDTYIQWVRQAPGQGLEWMGRIDPLRKQTKYREKFEGRVTITADTSTNTAYMELSSLRSEDTAVYYCVRSGREFDYWGQGTLVTVSSASTKGPSVFPLAPSSKSTSGGTAALGCLVKDYFPEPVTVSWNSGALTSGVHTFPAVLQSSGLYSLSSVVTVPSSSLGTQTYICNVNHKPSNTKVDKKVEPKSCDKTHTCPPCPAPELLGGPSVNLFPPKPKDTLMISRTPEVTCVVVDVSHEDPEVKFNWYVDGVEVHNAKTKPREEQYNSTYRVVSVLTVLHQDWLNGKEYKCKVSNDALPMPIEETISKAKGQPREPQVYTLPPSRCELTKNQVSLSCAVKGFYPSDIAVEWESNGQPENNYKTTPPVLDSDGSFFLVSKLTVDKSRWQQGNVFSCSVMHEALHNHYTQKSLSLSP light: DIQMTQSPSSLSASVGDRVTITCRASQDIHKYIAWYQQKPGQAPRLLIQYTSTLQPGVPSRFSGSGSGTDYTFTISSLQPEDIATYYCLQYEQLRTFGGGTKVEIKRTVAAPSVFIFPPSDEQLKSGTASVVCLLNNFYPREAKVQWKVDNALQSGNSQESVTEQDSKDSTYSLSSTLTLSKADYEKHKVYACEVTHQGLSSPVTKSFNRGEC | 0.7 | 1.1 | 3.5 | 3.8 | 0.8
H240-Kn061/H240-Hl071/L73-k0 variant with A231Q in H240-Kn061 (antibody, human IgG1, kappa, anti-epiregulin heterodimerized IgG1; also called H240-Kn061 A231Q) heavy 1: QDQLVQSGAEVKKPGASVKVSCKASGFNIKDTYIQWVRQAPGQGLEWMGRIDPLRKQTKYREKFEGRVTITADTSTNTAYMELSSLRSEDTAVYYCVRSGREFDYWGQGTLVTVSSASTKGPSVFPLAPSSKSTSGGTAALGCLVKDYFPEPVTVSWNSGALTSGVHTFPAVLQSSGLYSLSSVVTVPSSSLGTQTYICNVNHKPSNTKVDKKVEPKSCDKTHTCPPCPQPEYYWGPSVFLFPPKPKDTLMISRTPEVTCVVVDVSDEDPEVKFNWYVDGVEVHNAKTKPREEQYNATYRVVSVLTVLHQDWLNGKEYKCKVSNKALPAPIEKTISKAKGQPREPQVCTLPPSRDELTKNQVSLWCLVKGFYPSDIAVEWESNGQPENNYKTTPPVLDSDGSFFLYSKLTVDKSRWQQGNVFSCSVMHEALHNHYTQKSLSLSP heavy 2: QDQLVQSGAEVKKPGASVKVSCKASGFNIKDTYIQWVRQAPGQGLEWMGRIDPLRKQTKYREKFEGRVTITADTSTNTAYMELSSLRSEDTAVYYCVRSGREFDYWGQGTLVTVSSASTKGPSVFPLAPSSKSTSGGTAALGCLVKDYFPEPVTVSWNSGALTSGVHTFPAVLQSSGLYSLSSVVTVPSSSLGTQTYICNVNHKPSNTKVDKKVEPKSCDKTHTCPPCPAPELLGGPSVFLFPPKPKDTLMISRTPEVTCVVVDVSHEDPEVKFNWYVDGVEVHNAKTKPREEQYNSTYRVVSVLTVLHQDWLNGKEYKCKVSNDALPMPIEETISKAKGQPREPQVYTLPPSRCELTKNQVSLSCAVKGFYPSDIAVEWESNGQPENNYKTTPPVLDSDGSFFLVSKLTVDKSRWQQGNVFSCSVMHEALHNHYTQKSLSLSP light: DIQMTQSPSSLSASVGDRVTITCRASQDIHKYIAWYQQKPGQAPRLLIQYTSTLQPGVPSRFSGSGSGTDYTFTISSLQPEDIATYYCLQYEQLRTFGGGTKVEIKRTVAAPSVFIFPPSDEQLKSGTASVVCLLNNFYPREAKVQWKVDNALQSGNSQESVTEQDSKDSTYSLSSTLTLSKADYEKHKVYACEVTHQGLSSPVTKSFNRGEC | 1.7 | 1.4 | 1.5 | 1.5 | 1.5

The remaining lines, values ahead:

relative KD [1] [ratio] | relative KD [2] [ratio] | relative KD [3] [ratio] | relative KD [4] [ratio] | relative KD [5] [ratio] | Binder
2 | 1.4 | 1.6 | 1.7 | 1.8 | H240-Kn061/H240-Hl071/L73-k0 variant with A231E in H240-Kn061 (antibody, human IgG1, kappa, anti-epiregulin heterodimerized IgG1; also called H240-Kn061 A231E) heavy 1: QDQLVQSGAEVKKPGASVKVSCKASGFNIKDTYIQWVRQAPGQGLEWMGRIDPLRKQTKYREKFEGRVTITADTSTNTAYMELSSLRSEDTAVYYCVRSGREFDYWGQGTLVTVSSASTKGPSVFPLAPSSKSTSGGTAALGCLVKDYFPEPVTVSWNSGALTSGVHTFPAVLQSSGLYSLSSVVTVPSSSLGTQTYICNVNHKPSNTKVDKKVEPKSCDKTHTCPPCPEPEYYWGPSVFLFPPKPKDTLMISRTPEVTCVVVDVSDEDPEVKFNWYVDGVEVHNAKTKPREEQYNATYRVVSVLTVLHQDWLNGKEYKCKVSNKALPAPIEKTISKAKGQPREPQVCTLPPSRDELTKNQVSLWCLVKGFYPSDIAVEWESNGQPENNYKTTPPVLDSDGSFFLYSKLTVDKSRWQQGNVFSCSVMHEALHNHYTQKSLSLSP heavy 2: QDQLVQSGAEVKKPGASVKVSCKASGFNIKDTYIQWVRQAPGQGLEWMGRIDPLRKQTKYREKFEGRVTITADTSTNTAYMELSSLRSEDTAVYYCVRSGREFDYWGQGTLVTVSSASTKGPSVFPLAPSSKSTSGGTAALGCLVKDYFPEPVTVSWNSGALTSGVHTFPAVLQSSGLYSLSSVVTVPSSSLGTQTYICNVNHKPSNTKVDKKVEPKSCDKTHTCPPCPAPELLGGPSVFLFPPKPKDTLMISRTPEVTCVVVDVSHEDPEVKFNWYVDGVEVHNAKTKPREEQYNSTYRVVSVLTVLHQDWLNGKEYKCKVSNDALPMPIEETISKAKGQPREPQVYTLPPSRCELTKNQVSLSCAVKGFYPSDIAVEWESNGQPENNYKTTPPVLDSDGSFFLVSKLTVDKSRWQQGNVFSCSVMHEALHNHYTQKSLSLSP light: DIQMTQSPSSLSASVGDRVTITCRASQDIHKYIAWYQQKPGQAPRLLIQYTSTLQPGVPSRFSGSGSGTDYTFTISSLQPEDIATYYCLQYEQLRTFGGGTKVEIKRTVAAPSVFIFPPSDEQLKSGTASVVCLLNNFYPREAKVQWKVDNALQSGNSQESVTEQDSKDSTYSLSSTLTLSKADYEKHKVYACEVTHQGLSSPVTKSFNRGEC
1.5 | 1.6 | 1.6 | 1.6 | 1.3 | H240-Kn061/H240-Hl071/L73-k0 variant with A231V in H240-Kn061 (antibody, human IgG1, kappa, anti-epiregulin heterodimerized IgG1; also called H240-Kn061 A231V) heavy 1: QDQLVQSGAEVKKPGASVKVSCKASGFNIKDTYIQWVRQAPGQGLEWMGRIDPLRKQTKYREKFEGRVTITADTSTNTAYMELSSLRSEDTAVYYCVRSGREFDYWGQGTLVTVSSASTKGPSVFPLAPSSKSTSGGTAALGCLVKDYFPEPVTVSWNSGALTSGVHTFPAVLQSSGLYSLSSVVTVPSSSLGTQTYICNVNHKPSNTKVDKKVEPKSCDKTHTCPPCPVPEYYWGPSVFLFPPKPKDTLMISRTPEVTCVVVDVSDEDPEVKFNWYVDGVEVHNAKTKPREEQYNATYRVVSVLTVLHQDWLNGKEYKCKVSNKALPAPIEKTISKAKGQPREPQVCTLPPSRDELTKNQVSLWCLVKGFYPSDIAVEWESNGQPENNYKTTPPVLDSDGSFFLYSKLTVDKSRWQQGNVFSCSVMHEALHNHYTQKSLSLSP heavy 2: QDQLVQSGAEVKKPGASVKVSCKASGFNIKDTYIQWVRQAPGQGLEWMGRIDPLRKQTKYREKFEGRVTITADTSTNTAYMELSSLRSEDTAVYYCVRSGREFDYWGQGTLVTVSSASTKGPSVFPLAPSSKSTSGGTAALGCLVKDYFPEPVTVSWNSGALTSGVHTFPAVLQSSGLYSLSSVVTVPSSSLGTQTYICNVNHKPSNTKVDKKVEPKSCDKTHTCPPCPAPELLGGPSVFLFPPKPKDTLMISRTPEVTCVVVDVSHEDPEVKFNWYVDGVEVHNAKTKPREEQYNSTYRVVSVLTVLHQDWLNGKEYKCKVSNDALPMPIEETISKAKGQPREPQVYTLPPSRCELTKNQVSLSCAVKGFYPSDIAVEWESNGQPENNYKTTPPVLDSDGSFFLVSKLTVDKSRWQQGNVFSCSVMHEALHNHYTQKSLSLSP light: DIQMTQSPSSLSASVGDRVTITCRASQDIHKYIAWYQQKPGQAPRLLIQYTSTLQPGVPSRFSGSGSGTDYTFTISSLQPEDIATYYCLQYEQLRTFGGGTKVEIKRTVAAPSVFIFPPSDEQLKSGTASVVCLLNNFYPREAKVQWKVDNALQSGNSQESVTEQDSKDSTYSLSSTLTLSKADYEKHKVYACEVTHQGLSSPVTKSFNRGEC

Source: patent US20150344570A1 (published 2015)
